# Assay results taken from patent US20240409663A1 (CONCEPT TO MEDICINE BIOTECH, published 2024).
# Positions count from the first letter of the chain named.
# B1: 52H5D3B8-6#-VH3+VL3 (antibody, V domains shown)
# VH: QVQLVQSGAEVKKPGASVKVSCKALGYTFTDYEMHWVKQAPGQGLEWIGAIHPGSGGTAYNQKFKGRVTLTADTSTSTVYMELSSLRSEDTAVYYCTRYYSYAYWGQGTLVTVSS
# VL: DIVMTQTPLSLSVTPGQPASISCRSSQSLVHSNGNTYLQWYLQKPGQSPKLLIYKVSNRFSGVPDRFSGSGSGTDFTLKISRVEAEDVGVYYCFQSIHVPYTFGGGTKLEIK
# notes: humanized
# B2: 52H5D3B8-6#-VH4+VL3 (antibody, V domains shown)
# VH: B1 VH with V68A, L70M, T74K, S75F
# VL: B1 VL
# notes: humanized
# B3: 52H5D3B8-6#-VH4+VL4 (antibody, V domains shown)
# VH: B1 VH with V68A, L70M, T74K, S75F
# VL: B1 VL with Y92F
# notes: humanized
# B4: 52H5D3B8-6#-VH4+VL2 (antibody, V domains shown)
# VH: B1 VH with V68A, L70M, T74K, S75F
# VL: B1 VL with K50Q, Y92F
# notes: humanized
# B5: Hu 52H5D3B8-12 (antibody, V domains shown)
# VH: EVQLVQSGAEVKKPGASVKVSCKASGYTFTDYEMHWVRQAPGQGLEWIGAIHPGSGGTAYNQKFKGKATLTADKSISTAYMELSRLRSDDTAVYYCTRFYSYAYWGQGTLVTVSS
# VL: B1 VL with I2V, K50Q, Y92F, F94S, L109V
# notes: humanized 52H5D3B8; also called 52H5D3B8 VH5 + VL1
# B6: Hu 52H5D3B8-11 (antibody, V domains shown)
# VH: B5 VH
# VL: B1 VL with I2V, K50Q, F94S, L109V
# notes: humanized 52H5D3B8; also called 52H5D3B8 VH5 + VL0
# B7: Hu 52H5D3B8-10 (antibody, V domains shown)
# VH: B5 VH with K67R, A68V
# VL: B1 VL with I2V, K50Q, Y92F, F94S, L109V
# notes: humanized 52H5D3B8; also called 52H5D3B8 VH4 + VL1
# B8: 52H5D3B8-20#-VH2+VL3 (antibody, V domains shown)
# VH: B1 VH with L25S, T28R, K38R, K63L, L70M
# VL: B1 VL with S61P, F94V, Q95E
# B9: 52H5D3B8-18#-VH2+VL3 (antibody, V domains shown)
# VH: B1 VH with L25S, D31R, K38R, Q62S, L70M
# VL: B1 VL with F60Y, F94V, Q95E
# B10: 52H5D3B8-19#-VH2+VL3 (antibody, V domains shown)
# VH: B1 VH with L25S, D31G, K38R, L70M
# VL: B1 VL with S61A, F94V, Q95E
# B11: 18C1D9 chimeric mAb (antibody, V domains shown)
# VH: QVQLQQSGAELVRPGASVTLSCKASGYTFSDYEMHWVKQTPVHGLEWIGAIDPETGGTAYNQKFKGKATLTADKSSSTAYMELRSLTSEDSAVYYCTRYYSYAYWGQGTLVTVSA
# VL: DVVMTQSPLSLPVSLGDQASISCRSRQSLVHSNGNTYLQWYLQKPGQSPKLLIYKVSNRFSGVPDRFSGSGSGTDFTLKISRVEAEDLGVYFCFQSIHVPYTFGGGTKLEKK
# B12: 171F9C5 chimeric mAb (antibody, V domains shown)
# VH: B11 VH with S30T, M34I, G56D, G57N, N61S, T69I
# VL: DVVMTQTPLSLPVSLGDQASISCRSSQSPVHRNGNTYLHWYLQKPGQSPKLLIFKVSNRFSGVPDRFSGSGSGTDFTLKISRVAAEDLGVYFCSQTTHVPYTFGGGTKLEIK
# B13: 163E7D12 chimeric mAb (antibody, V domains shown)
# VH: B11 VH with S30T, D52G, G57S, K63R, T69I, L70V, Y102F
# VL: B11 VL with S7T, D17G, R26S, Y54F, K111I
# B14: 172B4E9 chimeric mAb (antibody, V domains shown)
# VH: QVQLQQSGAELVRPGASVTLSCKASGYTFTDYEIHWVKQTPVHGLEWIGAIDPATGDTAYTQKFKGKAILTADTSSNTVYMELRGLTSEDSAVHFCTRFYSYAYWGQGTLVTVSA
# VL: B12 VL with P29L, R32T, N35H, H39Q, P45S, K50R, T77K, A84E, T96S
# B15: 152E9F7 chimeric mAb (antibody, V domains shown)
# VH: B14 VH with A54E, T74K, G85S, H94Y, F95Y
# VL: B11 VL with S7T, R26S, S32T, N35H, P45S, F94S, I97T, K111I
# Target: T1, human GPC3 on cells (human, UniProt P51654 25-554)
# T1 construct: whole, on cells; over-expressed on CHOK1 cells or endogenous on HEPG2, Hep3B and Huh-7 hepatocellular carcinoma cells; the cell line is named under assay; also called GPC3-CHOK1 cells; human GPC3 over-expressed CHOK1 cells
# Assay: FACS, Hep3B cells
# Method: (§1) To evaluate the antigen binding property, the humanized antibodies were analyzed for their binding to human GPC3 over-expressed CHOK1 cells, HEPG2 cells, Hep3B cells and Huh-7 cells by FACS. Briefly, GPC3-CHOK1 cells, HEPG2 cells, Hep3B cells and Huh-7 cells were firstly incubated with Fc blocking reagent at 4° C. for 15 mins. Cells were washed by FACS buffer and divided to each well with 4-fold serially diluted humanized antibodies starting at 10 μg/mL at 4° C. for 60 mins. Cells were washed by FACS buffer and fixed with 2% PFA at RT for 15 mins. […] The 16 humanized antibodies were separated into two plates.
row,EC50 [µg/mL],Binder
1,0.0682,B1
2,0.0511,B2
3,0.047,B3
4,0.0627,B4

# Target: T1, human GPC3 on cells
# Assay: FACS, GPC3-CHOK1 cells
# Method: as §1
row,EC50 [µg/mL],Binder
1,0.0408,B1
2,0.0379,B2
3,0.0367,B3
4,0.0425,B4

# Target: T1, human GPC3 on cells
# Assay: FACS, GPC3-CHOK1 cells
# Remark: another data set of the same source
# Method: as §1, with “CHOK1” for “CHOK1 cells, HEPG2 cells, Hep3B”, “GPC3-CHOK1” for “GPC3-CHOK1 cells, HEPG2 cells, Hep3B”, “As different plates might affect the EC50 of 52H5D3B8-VH+VL, the 12” for “The 16”
row,EC50 [µg/mL],Binder
1,0.0384,B5
2,0.04,B6
3,0.0389,B7

# Target: T2, human GPC3-his tag protein (human, UniProt P51654 25-559, limits assumed)
# T2 construct: recombinant soluble antigen used as analyte in all Biacore runs; also called recombinant GPC3 protein; rhGPC3-His; not shown: His tag
# Assay: SPR Biacore, mAb captured on CM5, GPC3-his dilution series (full kinetics)
# Method: The binding of the humanized antibodies to recombinant GPC3 protein (human GPC3-his tag) was tested by Biacore using a capture method. 52H5D3B8-6 #-V+VL, 52H5D3B8-6 #-VH1+VL1, 52H5D3B8-6 #-VH1+VL3, 52H5D3B8-6 #-V1+VL4, 52H5D3B8-6 #-VH2+VL4, 52H5D3B8-6 #-VH3+VL1, 52H5D3B8-6 #-VH3+VL3 mAbs were captured using CM5 sensor chip. A serial dilution of human GPC3-his tag protein was injected over captured antibody for 2 mins at a flow rate of […]. The antigen was allowed to dissociate for 360 s. All the experiments were carried out on a Biacore T200.
Kd [pM],koff [s⁻¹],kon [M⁻¹ s⁻¹],Binder
898,0.000538,600000,B1

# Target: T1, human GPC3 on cells
# Assay: cell-based or functional assay
"EC50 of ADCC signaling (Jurkat-hCD16a-NFAT luciferase reporter), HEPG2 cells [pM]","EC50 of ADCC signaling (Jurkat-hCD16a-NFAT luciferase reporter), Huh-7 cells [pM]",Binder
57.1,124,B8
202,480,B9
84.4,266,B10

# Target: T1, human GPC3 on cells
# Assay: FACS, GPC3-CHOK1 cells
# Remark: another data set of the same source
# Method: To evaluate the antigen binding property, the affinity maturated antibodies were analyzed for their binding to human GPC3 over-expressed CHOK1 cells by FACS as previously described.
row,EC50 [pM],Binder
1,207,B8
2,177,B9
3,207,B10

# Target: T1, human GPC3 on cells
# Assay: FACS, Huh-7 cells
# Method: as §1, with “CHOK1” for “CHOK1 cells, HEPG2 cells, Hep3B”, “GPC3-CHOK1” for “GPC3-CHOK1 cells, HEPG2 cells, Hep3B”, “As different plates might affect the EC50 of 52H5D3B8-VH+VL, the 12” for “The 16”
row,EC50 [µg/mL],Binder
1,0.0294,B5
2,0.0288,B6
3,0.0323,B7

# Target: T1, human GPC3 on cells
# Assay: FACS, HEPG2 cells
# Method: as §1
row,EC50 [µg/mL],Binder
1,0.0426,B1
2,0.0391,B2
3,0.0367,B3
4,0.0435,B4

# Target: T1, human GPC3 on cells
# Assay: FACS, GPC3-CHOK1 cells
# Remark: another data set of the same source
# Method: Cell-based binding: FACS was used to evaluate the binding activity of chimeric mAbs (18C1D9, 52H5D3B8, 163E7D12, 172B4E9, 152E9F7 and 171F9C5) with comparison to a known GPC3 antibody GC33 (Chugai Pharmaceutical) on human GPC3 over-expressed CHOK1 cells.
# Briefly, GPC3-CHOK1 cells were washed by FACS buffer and divided to each well with 3-fold serially diluted chimeric mAbs or GC33 mAb starting at 5 μg/mL at 4° C. for 40 mins. […] Samples were washed twice with FACS buffer.
row,EC50 [µg/mL],Binder
1,0.238,B11
2,0.142,B12
3,0.17,B13
4,0.269,B14
5,0.14,B15

# Target: T1, human GPC3 on cells
# Assay: FACS, Huh-7 cells
# Remark: another data set of the same source
# Method: as §1
row,EC50 [µg/mL],Binder
1,0.0351,B1
2,0.0287,B2
3,0.0259,B3
4,0.0326,B4

# Target: T2, human GPC3-his tag protein
# Assay: SPR Biacore 8K, mAb captured, affinity ranking
# Method: To evaluate antigen binding activity, the chimeric antibody's affinity was measured by Biacore 8K. A serial dilution of human GPC3-his tag protein was injected over captured chimeric antibody 52H5D3B8-6 #-VH+VL for 3 mins at a flow rate of 30 μl/min. The antigen was allowed to dissociate for 720 s. Among the multi detection doses, two concentrations with most close affinity to the chimeric antibody's affinity were chosen for the 16 humanized antibodies' affinity detection.
Kd [pM],koff [s⁻¹],kon [M⁻¹ s⁻¹],Binder
721,0.000514,714000,B1
847,0.000601,709000,B2
857,0.000593,692000,B3
1050,0.000674,642000,B4

# Target: T1, human GPC3 on cells
# Assay: cell-based or functional assay
# Remark: another data set of the same source
Binder,"EC50 of ADCC cytotoxicity (primary NK cells, LDH), HEPG2 cells [pM]","EC50 of ADCC cytotoxicity (primary NK cells, LDH), Huh-7 cells [pM]"
B8,121,28.7
B9,149,82.6
B10,85.2,32.8

# Target: T2, human GPC3-his tag protein
# Assay: SPR Biacore 8K, mAb captured, affinity ranking
# Remark: another data set of the same source
# Method: To evaluate antigen binding activity, the chimeric antibody's affinity was measured by Biacore 8K. Two concentrations with most close affinity to the chimeric antibody's affinity were chosen for the 12 humanized antibodies' affinity detection. Human GPC3-his tag protein was injected over captured antibody for 3 mins at a flow rate of 30 μl/min. The antigen was allowed to dissociate for 720 s.
Kd [pM],koff [s⁻¹],kon [M⁻¹ s⁻¹],Binder
3220,0.001,310000,B5
3060,0.000905,295000,B6
3890,0.00104,267000,B7
